From article doi:10.1101/2023.06.28.546941 (bioRxiv, 2023)

T1: MEF2 (UniProt P40791 1-540)
T1 sequence: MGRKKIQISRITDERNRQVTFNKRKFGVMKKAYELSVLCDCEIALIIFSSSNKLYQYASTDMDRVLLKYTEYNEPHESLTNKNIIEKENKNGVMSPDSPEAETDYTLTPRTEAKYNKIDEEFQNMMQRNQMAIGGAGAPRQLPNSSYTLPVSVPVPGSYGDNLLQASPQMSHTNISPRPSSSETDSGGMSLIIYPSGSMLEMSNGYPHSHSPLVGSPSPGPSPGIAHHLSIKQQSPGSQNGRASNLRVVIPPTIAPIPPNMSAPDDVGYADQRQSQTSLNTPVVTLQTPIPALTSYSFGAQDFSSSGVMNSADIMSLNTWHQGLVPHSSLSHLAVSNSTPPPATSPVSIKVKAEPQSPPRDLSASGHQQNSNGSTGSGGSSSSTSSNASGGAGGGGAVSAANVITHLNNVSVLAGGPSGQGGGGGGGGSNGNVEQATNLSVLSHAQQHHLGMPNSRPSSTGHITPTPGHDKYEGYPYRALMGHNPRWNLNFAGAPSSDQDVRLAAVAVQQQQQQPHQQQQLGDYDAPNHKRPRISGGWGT

T2: MEF2 MADS plus MEF2 domain (amino acids 1-90) (Drosophila, UniProt P40791 1-90)
T2 sequence (looked up): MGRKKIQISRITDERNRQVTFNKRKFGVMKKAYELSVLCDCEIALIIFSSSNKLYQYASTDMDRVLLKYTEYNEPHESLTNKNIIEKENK


Key:
[1] = molecular target: T1, MEF2; assay: competition
[2] = molecular target: T2, MEF2 MADS plus MEF2 domain (amino acids …); assay: pull-down

Binder | binding result [1] | binding result [2]
M1+T1 M1mut (dsDNA) DNA 1: GGTGTCGTCTGTTGAAGTGTGAACATTAATGCCTAGATCTAAAGCGATAAAA DNA 2: GGTTTTATCGCTTTAGATCTAGGCATTAATGTTCACACTTCAACAGACGACA | no binding | 
MBP-fused Tin homeodomain (amino acids 301-360) (domain or fragment, Drosophila, UniProt P22711 301-360, looked up) KRKPRVLFSQAQVLELECRFRLKKYLTGAEREIIAQKLNLSATQVKIWFQNRRYKSKRGD |  | binds
